Molecular target: cSH2 domain of PLCγ (isolated, solution experiments)
Test: NMR titration

- stoichiometry N: 1 FGFR2K^pY769 per cSH2
B1: activated FGFR2 kinase, mono-phosphorylated on Tyr-769 (FGFR2K^pY769) (domain or fragment)
chain: MGSSHHHHHHSQDPMLAGVSEFELPEDPKWEFPRDKLTLGKPLGEGAFGQVVMAEAVGIDKDKPKEAVTVAVKMLKDDATEKDLSDLVSEMEMMKMIGKHKNIINLLGACTQDGPLYVIVAYASKGNLREYLRARRPPGMELSPDINRVPEEQMTFKDLVSCTYQLARGMEYLASQKCIHRDLAARNVLVTENNVMKIADFGLARDINNIDFFKETTNGRLPVKWMAPEALFDRVYTHQSDVWSFGVLMWEIFTLGGSPYPGIPVEELFKLLKEGHRMDKPANCTNELYMMMRDCWHAVPSQRPTFKQLVEDLDRILTLTTNEEYLDLSQPLEQ
modifications: phosphotyrosine at 769
